Assay [1] has as its target MOG-reactive B-cell receptor on B cells of anti-MOG transgenic mice. Kind of assay: flow cytometry on splenocytes, goat-anti-human IgG FITC.
Assay [2] has the same target. Kind of assay: cell-based or functional assay.

From US20060062780A1 come the findings set out here.

With MOG-Fc fusion protein, the percent of IgM-positive splenocytes that bound (% of IgM-positive splenocytes) in assay [1] was > 90. For the same substance, in assay [2], the ex vivo B cell depletion, splenocytes of anti-MOG transgenic mice, 10 µg/ml, 16 h was 70%.
